Reference: paper PMC9482650, “Quantitative fragmentomics allow affinity mapping of interactomes” (Nature Communications, 2022)

T1: ARHGAP21, Q5T5U3
T1 sequence (Q5T5U3 45-169, limits assumed, looked up): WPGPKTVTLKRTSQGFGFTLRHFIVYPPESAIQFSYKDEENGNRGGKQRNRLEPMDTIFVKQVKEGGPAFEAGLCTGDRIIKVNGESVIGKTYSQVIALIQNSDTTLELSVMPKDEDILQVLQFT

T2: DFNB31_1, Q9P202
T2 sequence (Q9P202 135-233, limits assumed, looked up): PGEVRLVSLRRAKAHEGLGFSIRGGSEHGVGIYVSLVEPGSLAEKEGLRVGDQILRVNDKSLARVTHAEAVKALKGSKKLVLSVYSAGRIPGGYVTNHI

T3: GRIP1_7, Q9Y3R0
T3 sequence (Q9Y3R0 999-1096, limits assumed, looked up): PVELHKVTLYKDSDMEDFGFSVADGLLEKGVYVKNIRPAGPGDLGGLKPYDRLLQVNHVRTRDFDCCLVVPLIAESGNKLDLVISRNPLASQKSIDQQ

T4: HTRA3, P83110
T4 sequence (P83110 354-453, limits assumed, looked up): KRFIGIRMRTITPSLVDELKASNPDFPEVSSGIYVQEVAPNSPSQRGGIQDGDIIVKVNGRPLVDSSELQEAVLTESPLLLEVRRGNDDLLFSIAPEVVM

T5: LIN7C, Q9NUP9
T5 sequence (Q9NUP9 88-185, limits assumed, looked up): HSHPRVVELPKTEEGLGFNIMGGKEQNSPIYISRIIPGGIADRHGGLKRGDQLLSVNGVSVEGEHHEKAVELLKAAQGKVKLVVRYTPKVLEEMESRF

T6: LNX2_3, Q8N448
T6 sequence (Q8N448 463-564, limits assumed, looked up): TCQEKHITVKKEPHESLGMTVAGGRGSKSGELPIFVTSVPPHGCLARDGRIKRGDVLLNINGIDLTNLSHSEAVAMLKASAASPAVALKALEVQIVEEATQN

T7: MPDZ_5, O75970
T7 sequence (O75970 695-796, limits assumed, looked up): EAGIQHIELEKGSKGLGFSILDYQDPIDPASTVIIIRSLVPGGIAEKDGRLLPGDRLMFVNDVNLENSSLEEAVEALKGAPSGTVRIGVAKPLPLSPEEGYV

T8: PARD3B_1, Q8TEW8
T8 sequence (Q8TEW8 196-299, limits assumed, looked up): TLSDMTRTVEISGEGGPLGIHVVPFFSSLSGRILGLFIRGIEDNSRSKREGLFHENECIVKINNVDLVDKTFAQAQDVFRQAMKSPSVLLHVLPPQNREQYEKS

T9: PDZD2_2, O15018
T9 sequence (O15018 329-429, limits assumed, looked up): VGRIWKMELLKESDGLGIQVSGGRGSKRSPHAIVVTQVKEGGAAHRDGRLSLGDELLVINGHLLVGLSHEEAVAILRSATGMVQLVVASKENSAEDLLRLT

T10: SNTA1, Q13424
T10 sequence (Q13424 82-180, limits assumed, looked up): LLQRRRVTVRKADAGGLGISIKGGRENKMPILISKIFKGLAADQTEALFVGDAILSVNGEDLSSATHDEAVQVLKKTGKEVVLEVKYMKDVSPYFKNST

T11: TX1BP3, O14907
T11 sequence (O14907 10-122, limits assumed, looked up): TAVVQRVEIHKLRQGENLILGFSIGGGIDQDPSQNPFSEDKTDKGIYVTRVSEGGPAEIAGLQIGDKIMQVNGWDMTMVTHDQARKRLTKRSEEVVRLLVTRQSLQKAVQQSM


Assays:
Assay in all cases: holdup assay
Set-up in all cases: key: below the threshold = too weak to quantify, mostly under pKd 3.1 to 4
Conditions in all cases: plain residues with an end cap or a label only (N-terminal biotin on a linker: ado-ado)
ARHGAP21, Q5T5U3 = target: T1, ARHGAP21, Q5T5U3
DFNB31_1, Q9P202 = target: T2, DFNB31_1, Q9P202
DLG2_3, Q15700 = target: DLG2_3, Q15700
FRMPD2_1, Q68DX3 = target: FRMPD2_1, Q68DX3
Sequence of FRMPD2_1, Q68DX3 (Q68DX3 770-861): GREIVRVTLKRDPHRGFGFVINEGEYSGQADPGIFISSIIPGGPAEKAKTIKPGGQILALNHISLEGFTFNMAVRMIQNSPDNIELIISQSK

FRMPD3, Q5JV73 = target: FRMPD3, Q5JV73
Sequence of FRMPD3, Q5JV73 (Q5JV73 12-100): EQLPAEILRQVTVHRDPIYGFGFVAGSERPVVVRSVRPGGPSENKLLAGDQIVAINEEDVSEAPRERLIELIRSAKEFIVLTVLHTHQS

GIPC2, Q8TF65 = target: GIPC2, Q8TF65
Sequence of GIPC2, Q8TF65 (Q8TF65 112-203): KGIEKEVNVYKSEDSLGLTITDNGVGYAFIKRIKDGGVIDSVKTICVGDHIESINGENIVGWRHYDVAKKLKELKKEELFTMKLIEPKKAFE

GOPC, Q9HD26 = target: GOPC, Q9HD26
GORASP2, Q9H8Y8 = target: GORASP2, Q9H8Y8
GRID2IP_2, A4D2P6 = target: GRID2IP_2, A4D2P6
Sequence of GRID2IP_2, A4D2P6 (A4D2P6 272-370): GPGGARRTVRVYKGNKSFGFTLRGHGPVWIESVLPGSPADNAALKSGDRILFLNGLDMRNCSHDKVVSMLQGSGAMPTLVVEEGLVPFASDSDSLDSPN

GRIP1_7, Q9Y3R0 = target: T3, GRIP1_7, Q9Y3R0
HTRA3, P83110 = target: T4, HTRA3, P83110
Inadl_1, Q8NI35 = target: Inadl_1, Q8NI35
Sequence of Inadl_1, Q8NI35 (Q8NI35 113-229): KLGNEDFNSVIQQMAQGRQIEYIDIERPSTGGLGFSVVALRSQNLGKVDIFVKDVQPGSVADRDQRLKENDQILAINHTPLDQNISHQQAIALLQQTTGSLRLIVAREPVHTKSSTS

Inadl_3, Q8NI35 = target: Inadl_3, Q8NI35
Sequence of Inadl_3, Q8NI35 (Q8NI35 359-469): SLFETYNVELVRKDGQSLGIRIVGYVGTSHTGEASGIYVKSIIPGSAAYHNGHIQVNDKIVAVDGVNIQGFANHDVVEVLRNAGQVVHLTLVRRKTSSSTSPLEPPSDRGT

Inadl_5, Q8NI35 = target: Inadl_5, Q8NI35
Sequence of Inadl_5, Q8NI35 (Q8NI35 673-780): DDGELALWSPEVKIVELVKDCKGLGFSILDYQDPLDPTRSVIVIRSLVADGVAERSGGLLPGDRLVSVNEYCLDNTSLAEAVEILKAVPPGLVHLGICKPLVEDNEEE

LAP2, Q96RT1 = target: LAP2, Q96RT1
Sequence of LAP2, Q96RT1 (Q96RT1 other isoform, or with tags, fused parts or gaps): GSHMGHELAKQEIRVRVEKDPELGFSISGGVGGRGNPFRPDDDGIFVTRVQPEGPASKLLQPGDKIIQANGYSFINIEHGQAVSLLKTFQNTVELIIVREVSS

LIN7C, Q9NUP9 = target: T5, LIN7C, Q9NUP9
LNX2_3, Q8N448 = target: T6, LNX2_3, Q8N448
MPDZ_5, O75970 = target: T7, MPDZ_5, O75970
NHERF2_2, Q15599 = target: NHERF2_2, Q15599
Sequence of NHERF2_2, Q15599 (Q15599 142-238): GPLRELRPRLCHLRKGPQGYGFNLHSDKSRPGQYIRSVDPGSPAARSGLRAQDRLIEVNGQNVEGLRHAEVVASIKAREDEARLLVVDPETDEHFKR

PARD3B_1, Q8TEW8 = target: T8, PARD3B_1, Q8TEW8
PDZD2_2, O15018 = target: T9, PDZD2_2, O15018
SCRIB_2, Q14160 = target: SCRIB_2, Q14160
Sequence of SCRIB_2, Q14160 (Q14160 857-960): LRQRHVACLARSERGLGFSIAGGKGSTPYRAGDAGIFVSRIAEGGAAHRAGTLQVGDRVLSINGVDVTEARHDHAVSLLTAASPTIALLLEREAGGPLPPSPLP

SNTA1, Q13424 = target: T10, SNTA1, Q13424
TJP1_2, Q07157 = target: TJP1_2, Q07157
Sequence of TJP1_2, Q07157 (Q07157 181-274): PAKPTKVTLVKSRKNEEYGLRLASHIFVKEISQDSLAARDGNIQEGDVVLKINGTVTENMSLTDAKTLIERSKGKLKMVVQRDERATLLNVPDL

TX1BP3, O14907 = target: T11, TX1BP3, O14907

Binder | pKd (ARHGAP21, Q5T5U3) | pKd (DFNB31_1, Q9P202) | pKd (DLG2_3, Q15700) | pKd (FRMPD2_1, Q68DX3) | pKd (FRMPD3, Q5JV73) | pKd (GIPC2, Q8TF65) | pKd (GOPC, Q9HD26) | pKd (GORASP2, Q9H8Y8) | pKd (GRID2IP_2, A4D2P6) | pKd (GRIP1_7, Q9Y3R0) | pKd (HTRA3, P83110) | pKd (Inadl_1, Q8NI35) | pKd (Inadl_3, Q8NI35) | pKd (Inadl_5, Q8NI35) | pKd (LAP2, Q96RT1) | pKd (LIN7C, Q9NUP9) | pKd (LNX2_3, Q8N448) | pKd (MPDZ_5, O75970) | pKd (NHERF2_2, Q15599) | pKd (PARD3B_1, Q8TEW8) | further results
AKPSRISTVV [IQSEC2, Q5JU85] | below the threshold | below the threshold | 4.34 | 3.53 | below the threshold | below the threshold | 4.35 | 4.47 | 3.77 | below the threshold | 3.65 | below the threshold | 3.73 | 4.21 | below the threshold | below the threshold | below the threshold | below the threshold | below the threshold | below the threshold | pKd (PDZD2_2, O15018): 4.29; pKd (SCRIB_2, Q14160): below the threshold; pKd (SNTA1, Q13424): 4.12; pKd (TJP1_2, Q07157): below the threshold; pKd (TX1BP3, O14907): 3.76
PEYLGLDVPV [ERBB2, P04626] | 4.12 | below the threshold | below the threshold | 3.53 | 3.78 | below the threshold | below the threshold | below the threshold | below the threshold | 3.52 | below the threshold | below the threshold | 3.48 | below the threshold | 4.26 | below the threshold | below the threshold | below the threshold | below the threshold | below the threshold | pKd (PDZD2_2, O15018): below the threshold; pKd (SCRIB_2, Q14160): below the threshold; pKd (SNTA1, Q13424): 3.61; pKd (TJP1_2, Q07157): 3.65; pKd (TX1BP3, O14907): 4.19

Further lines, with some results ahead:

pKd (ARHGAP21, Q5T5U3) | pKd (DFNB31_1, Q9P202) | pKd (DLG2_3, Q15700) | pKd (FRMPD2_1, Q68DX3) | pKd (FRMPD3, Q5JV73) | pKd (GIPC2, Q8TF65) | pKd (GOPC, Q9HD26) | pKd (GORASP2, Q9H8Y8) | pKd (GRID2IP_2, A4D2P6) | pKd (GRIP1_7, Q9Y3R0) | pKd (HTRA3, P83110) | pKd (Inadl_1, Q8NI35) | pKd (Inadl_3, Q8NI35) | pKd (Inadl_5, Q8NI35) | pKd (LAP2, Q96RT1) | pKd (LIN7C, Q9NUP9) | pKd (LNX2_3, Q8N448) | pKd (MPDZ_5, O75970) | pKd (NHERF2_2, Q15599) | pKd (PARD3B_1, Q8TEW8) | Binder | further results
4.37 | below the threshold | below the threshold | below the threshold | below the threshold | 3.84 | 3.5 | below the threshold | 4.19 | below the threshold | below the threshold | below the threshold | below the threshold | below the threshold | 4.18 | below the threshold | below the threshold | below the threshold | below the threshold | below the threshold | DDENIRTSDV [PLEKHA2, Q9HB19] | pKd (PDZD2_2, O15018): 5.74; pKd (SCRIB_2, Q14160): 3.75; pKd (SNTA1, Q13424): 5.11; pKd (TJP1_2, Q07157): below the threshold; pKd (TX1BP3, O14907): 4.75
4.45 | 3.62 | below the threshold | below the threshold | 4.39 | below the threshold | below the threshold | below the threshold | below the threshold | below the threshold | below the threshold | below the threshold | below the threshold | below the threshold | 3.54 | below the threshold | below the threshold | below the threshold | 5.52 | 4.58 | TSQESEDTYL [TBC1D10A, Q9BXI6] | pKd (PDZD2_2, O15018): 4.49; pKd (SCRIB_2, Q14160): below the threshold; pKd (SNTA1, Q13424): 3.91; pKd (TJP1_2, Q07157): below the threshold; pKd (TX1BP3, O14907): below the threshold
